Results: patent US11498974 (BIOARCTIC, dated 2022)
One block for each molecule: values may come before it.

Experiments:
[1] = target: recombinant transferrin receptor protein (Sinobiological) (UniProt Q62351); assay: competition TfR ELISA; references: 8D3 and 8D3-F(ab′)2-h158
[2] = target: recombinant transferrin receptor protein (Sinobiological) (UniProt Q62351); assay: competition ELISA on coated recombinant TfR; competitor 2.5 nM biotinylated scFv8D3
Aβ protofibrils = Aβ protofibrils (UniProt P05067); assay: inhibition ELISA; reference: Aβ monomers
[3] = target: recombinant transferrin receptor protein (Sinobiological) (UniProt Q62351); assay: TfR competition ELISA, FIG. 2D; reference: RmAb158-scFv8D3
[4] = target: recombinant transferrin receptor protein (Sinobiological) (UniProt Q62351); assay: competition TfR ELISA; reference: RmAb158-scFv8D3
[5] = target: T1, recombinant transferrin receptor protein (Sinobiological) (UniProt Q62351 89-763, limits assumed); assay: TfR competition ELISA, FIG. 2D; reference: RmAb158-scFv8D3
T1 construct: Construct limits are unknown; also called TfR; recombinant TfR protein
T1 sequence (Q62351 89-763 limits assumed): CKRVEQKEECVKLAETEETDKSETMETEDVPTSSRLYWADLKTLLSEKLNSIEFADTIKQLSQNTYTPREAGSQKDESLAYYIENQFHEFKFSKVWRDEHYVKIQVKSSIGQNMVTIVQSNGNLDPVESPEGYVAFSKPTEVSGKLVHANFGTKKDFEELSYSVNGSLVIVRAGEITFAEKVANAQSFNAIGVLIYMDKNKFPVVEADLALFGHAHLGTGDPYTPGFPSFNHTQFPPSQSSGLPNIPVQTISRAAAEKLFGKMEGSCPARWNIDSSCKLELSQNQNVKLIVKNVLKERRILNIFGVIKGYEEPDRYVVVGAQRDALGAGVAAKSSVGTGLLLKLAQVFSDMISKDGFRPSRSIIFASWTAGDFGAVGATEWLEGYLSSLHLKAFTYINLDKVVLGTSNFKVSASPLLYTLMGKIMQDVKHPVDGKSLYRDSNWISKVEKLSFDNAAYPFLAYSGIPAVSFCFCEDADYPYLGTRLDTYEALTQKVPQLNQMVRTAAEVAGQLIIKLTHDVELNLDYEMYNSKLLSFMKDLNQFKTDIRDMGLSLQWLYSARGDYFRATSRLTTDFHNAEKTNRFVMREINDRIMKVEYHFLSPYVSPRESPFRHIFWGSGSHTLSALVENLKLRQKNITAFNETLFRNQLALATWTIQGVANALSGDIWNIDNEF

[6] = target: T1, recombinant transferrin receptor …; assay: competition ELISA on coated recombinant TfR; competitor 2.5 nM biotinylated scFv8D3

recombinant transferrin receptor protein (Sinobiological) (UniProt Q62351), sequence (Q62351 89-763 limits assumed): as above

Molecule: scFv8D3
fold higher Kd [4]: 2 fold
Kd [2]: 15 nM

B1: anti-TfR antibody 8D3 (antibody, V domains shown)
VH: EVQLVESGGGLVQPGNSLTLSCVASGFTFSNYGMHWIRQAPKKGLEWIAMIYYDSSKMNYADTVKGRFTISRDNSKNTLYLEMNSLRSEDTAMYYCAVPTSHYVVDVWGQGVSVTVSS
VL: DIQMTQSPASLSASLEEIVTITCQASQDIGNWLAWYQQKPGKSPQLLIYGATSLADGVPSRFSGSRSGTQFSLKISRVQVEDIGIYYCLQAYNTPWTFGGGTKLELK
fold stronger binding [5]: ~10 fold
Kd [6]: 0.8 nM

Other lines, results leading:

fold lower avidity [1]: 10 fold
Kd [2]: 8 nM
fold stronger binding to protofibrils than to monomers (Aβ protofibrils): 500 fold
Molecule: RmAb158-scFv8D3 (bispecific antibody)

Kd [2]: 0.69 nM
fold stronger binding [3]: 10 fold
Molecule: chemically conjugated fusion protein 8D3-F(ab′)2-h158 (bispecific antibody)
